These results are taken from US20200087373A1 (UNIVERSITY OF COPENHAGEN, published 2020).

Ends that are not written are not given here. * marks the point of attachment. C16 diacid = O=C(O)CCCCCCCCCCCCCCC(=O)*; Palmitoyl = CCCCCCCCCCCCCCCC(=O)*; Lauroyl = CCCCCCCCCCCC(=O)*

The target of assay [1] is T1, human serum albumin (human, UniProt P02768 25-609).
T1 construct: also called HSA; human albumin
The assay can be described thus: 125I-human GIP competition binding on hGIPR COS-7 cells with and without 2% HSA; fold change of IC50 taken as HSA binding.
Method: (§1) After incubation, the cells were washed twice in ice-cold binding buffer (+/−2% HSA) and lysed using 200 mM NaOH with 1% SDS for 30 min. Nonspecific binding was determined as the binding of radioactive ligand to untransfected cells.

Assay [2] has as its target T2, human GIP receptor (human, UniProt P48546 22-466).
T2 construct: whole, on cells; Transiently transfected COS-7 cells expressing the human GIP receptor; also called hGIPR
T2 sequence (looked up): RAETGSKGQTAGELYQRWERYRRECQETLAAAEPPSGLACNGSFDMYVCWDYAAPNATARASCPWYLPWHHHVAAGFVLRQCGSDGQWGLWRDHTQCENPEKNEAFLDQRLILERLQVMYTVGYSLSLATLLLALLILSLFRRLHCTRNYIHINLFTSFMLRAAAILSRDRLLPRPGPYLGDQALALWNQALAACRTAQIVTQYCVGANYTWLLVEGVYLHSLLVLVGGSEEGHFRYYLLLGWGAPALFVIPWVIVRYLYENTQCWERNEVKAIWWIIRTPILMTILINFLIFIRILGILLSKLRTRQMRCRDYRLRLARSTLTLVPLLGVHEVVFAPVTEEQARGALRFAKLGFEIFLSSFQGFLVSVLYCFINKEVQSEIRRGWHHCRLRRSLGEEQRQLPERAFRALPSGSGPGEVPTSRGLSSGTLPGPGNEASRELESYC
Kind of assay: 125I-hGIP(1-42) competition binding, COS-7 cells expressing human GIPR, 2% HSA.
Method: as §1

Assay [3] deals with T2, human GIP receptor. The assay can be described thus: ratio of IC50 with 2% HSA to IC50 with 0.1% casein, 125I-hGIP competition binding on hGIPR COS-7 cells.
Method: as §1
In assay [4] the target is T2, human GIP receptor. Kind of assay: 125I-hGIP(1-42) competition binding, COS-7 cells expressing human GIPR.
Method: as §1
Assay [5] has as its target T2, human GIP receptor. Kind of assay: 125I-hGIP(1-42) competition binding, COS-7 cells expressing human GIPR, 0.1% casein (no HSA).
Method: as §1
Assay [6] addresses T2, human GIP receptor. Kind of assay: cell-based or functional assay.
Assay [7] deals with T2, human GIP receptor. The assay can be described thus: 125I-hGIP competition binding on hGIPR COS-7 cells; fold in affinity, paired, reference taken as GIP(3-30)NH2.
Method: as §1

T1 sequence (P02768 25-609 limits assumed): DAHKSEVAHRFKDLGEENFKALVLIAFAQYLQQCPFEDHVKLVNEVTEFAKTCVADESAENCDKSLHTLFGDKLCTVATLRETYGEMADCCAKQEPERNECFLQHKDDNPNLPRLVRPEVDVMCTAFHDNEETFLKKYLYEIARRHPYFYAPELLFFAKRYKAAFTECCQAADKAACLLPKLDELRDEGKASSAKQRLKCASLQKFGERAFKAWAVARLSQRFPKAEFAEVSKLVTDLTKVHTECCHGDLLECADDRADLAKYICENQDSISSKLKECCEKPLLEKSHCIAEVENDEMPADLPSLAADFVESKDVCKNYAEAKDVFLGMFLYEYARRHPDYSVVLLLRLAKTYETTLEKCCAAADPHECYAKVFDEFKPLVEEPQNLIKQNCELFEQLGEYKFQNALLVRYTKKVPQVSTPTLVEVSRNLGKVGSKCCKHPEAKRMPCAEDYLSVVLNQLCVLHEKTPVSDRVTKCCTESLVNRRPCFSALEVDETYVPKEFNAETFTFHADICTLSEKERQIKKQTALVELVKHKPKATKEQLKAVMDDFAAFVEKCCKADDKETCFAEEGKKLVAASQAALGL

B1: AT181 [hGIP(5-30)NH2[D21K]-C16diacid/21] (peptide)
peptide: TFISDYSIAMDKIHQQK(C16 diacid)FVNWLLAQK-NH2
modifications: N-terminus assumed
SMILES: CC[C@H](C)[C@H](NC(=O)[C@H](CO)NC(=O)[C@H](Cc1ccc(O)cc1)NC(=O)[C@H](CC(=O)O)NC(=O)[C@H](CO)NC(=O)[C@@H](NC(=O)[C@H](Cc1ccccc1)NC(=O)[C@@H](N)[C@@H](C)O)[C@@H](C)CC)C(=O)N[C@@H](C)C(=O)N[C@@H](CCSC)C(=O)N[C@@H](CC(=O)O)C(=O)N[C@@H](CCCCN)C(=O)N[C@H](C(=O)N[C@@H](Cc1c[nH]cn1)C(=O)N[C@@H](CCC(N)=O)C(=O)N[C@@H](CCC(N)=O)C(=O)N[C@@H](CCCCNC(=O)CCCCCCCCCCCCCCC(=O)O)C(=O)N[C@@H](Cc1ccccc1)C(=O)N[C@H](C(=O)N[C@@H](CC(N)=O)C(=O)N[C@@H](Cc1c[nH]c2ccccc12)C(=O)N[C@@H](CC(C)C)C(=O)N[C@@H](CC(C)C)C(=O)N[C@@H](C)C(=O)N[C@@H](CCC(N)=O)C(=O)N[C@@H](CCCCN)C(N)=O)C(C)C)[C@@H](C)CC
With B1, the binding result in assay [1] is “binds”.

B2: AT117 [hGIP(3-30)NH2[H18K]-C16/18] (peptide)
peptide: EGTFISDYSIAMDKIK(Palmitoyl)QQDFVNWLLAQK-NH2
modifications: N-terminus assumed
SMILES: CCCCCCCCCCCCCCCC(=O)NCCCC[C@H](NC(=O)[C@@H](NC(=O)[C@H](CCCCN)NC(=O)[C@H](CC(=O)O)NC(=O)[C@H](CCSC)NC(=O)[C@H](C)NC(=O)[C@@H](NC(=O)[C@H](CO)NC(=O)[C@H](Cc1ccc(O)cc1)NC(=O)[C@H](CC(=O)O)NC(=O)[C@H](CO)NC(=O)[C@@H](NC(=O)[C@H](Cc1ccccc1)NC(=O)[C@@H](NC(=O)CNC(=O)[C@@H](N)CCC(=O)O)[C@@H](C)O)[C@@H](C)CC)[C@@H](C)CC)[C@@H](C)CC)C(=O)N[C@@H](CCC(N)=O)C(=O)N[C@@H](CCC(N)=O)C(=O)N[C@@H](CC(=O)O)C(=O)N[C@@H](Cc1ccccc1)C(=O)N[C@H](C(=O)N[C@@H](CC(N)=O)C(=O)N[C@@H](Cc1c[nH]c2ccccc12)C(=O)N[C@@H](CC(C)C)C(=O)N[C@@H](CC(C)C)C(=O)N[C@@H](C)C(=O)N[C@@H](CCC(N)=O)C(=O)N[C@@H](CCCCN)C(N)=O)C(C)C
For B2, the binding result in assay [1] is recorded as “binds”.

B3: AT116 [hGIP(3-30)NH2-C12/18] (H18K) (peptide)
peptide: EGTFISDYSIAMDKIK(Lauroyl)QQDFVNWLLAQK-NH2
modifications: N-terminus assumed
SMILES: CCCCCCCCCCCC(=O)NCCCC[C@H](NC(=O)[C@@H](NC(=O)[C@H](CCCCN)NC(=O)[C@H](CC(=O)O)NC(=O)[C@H](CCSC)NC(=O)[C@H](C)NC(=O)[C@@H](NC(=O)[C@H](CO)NC(=O)[C@H](Cc1ccc(O)cc1)NC(=O)[C@H](CC(=O)O)NC(=O)[C@H](CO)NC(=O)[C@@H](NC(=O)[C@H](Cc1ccccc1)NC(=O)[C@@H](NC(=O)CNC(=O)[C@@H](N)CCC(=O)O)[C@@H](C)O)[C@@H](C)CC)[C@@H](C)CC)[C@@H](C)CC)C(=O)N[C@@H](CCC(N)=O)C(=O)N[C@@H](CCC(N)=O)C(=O)N[C@@H](CC(=O)O)C(=O)N[C@@H](Cc1ccccc1)C(=O)N[C@H](C(=O)N[C@@H](CC(N)=O)C(=O)N[C@@H](Cc1c[nH]c2ccccc12)C(=O)N[C@@H](CC(C)C)C(=O)N[C@@H](CC(C)C)C(=O)N[C@@H](C)C(=O)N[C@@H](CCC(N)=O)C(=O)N[C@@H](CCCCN)C(N)=O)C(C)C
On to B3, for which the half-inhibitory concentration (IC50) (usually the concentration needed to halve the response being measured) amounted to 321 nM in assay [2], 71.2 nM in assay [4] and 61.5 nM in assay [5]. In addition, the “Fold change (IC50 2% HSA / IC50 0.1% casein)” value in assay [3] is 5.2 fold. For the same molecule, the “cAMP - antagonisme IC50” value in assay [6] came to 11.9 nM. Moreover, in assay [6], the “cAMP - antagonisme fold (paired)” value was found to be 1.2 fold. In assay [7], the “fold (paired)” value came to 5 fold.

B4: AT143 [hGIP(3-30)NH2[M14L; H18K]-C16/18] (peptide)
peptide: EGTFISDYSIALDKIK(Palmitoyl)QQDFVNWLLAQK-NH2
modifications: N-terminus assumed
SMILES: CCCCCCCCCCCCCCCC(=O)NCCCC[C@H](NC(=O)[C@@H](NC(=O)[C@H](CCCCN)NC(=O)[C@H](CC(=O)O)NC(=O)[C@H](CC(C)C)NC(=O)[C@H](C)NC(=O)[C@@H](NC(=O)[C@H](CO)NC(=O)[C@H](Cc1ccc(O)cc1)NC(=O)[C@H](CC(=O)O)NC(=O)[C@H](CO)NC(=O)[C@@H](NC(=O)[C@H](Cc1ccccc1)NC(=O)[C@@H](NC(=O)CNC(=O)[C@@H](N)CCC(=O)O)[C@@H](C)O)[C@@H](C)CC)[C@@H](C)CC)[C@@H](C)CC)C(=O)N[C@@H](CCC(N)=O)C(=O)N[C@@H](CCC(N)=O)C(=O)N[C@@H](CC(=O)O)C(=O)N[C@@H](Cc1ccccc1)C(=O)N[C@H](C(=O)N[C@@H](CC(N)=O)C(=O)N[C@@H](Cc1c[nH]c2ccccc12)C(=O)N[C@@H](CC(C)C)C(=O)N[C@@H](CC(C)C)C(=O)N[C@@H](C)C(=O)N[C@@H](CCC(N)=O)C(=O)N[C@@H](CCCCN)C(N)=O)C(C)C
B4: the values for the IC50 in assay [2], in assay [4] and in assay [5] were 105 nM, 86.1 nM and 86.1 nM, respectively. The “Fold change (IC50 2% HSA / IC50 0.1% casein)” value in assay [3] came out at 1.2 fold. Moreover, the “cAMP - antagonisme IC50” value in assay [6] stood at 13.3 nM. Also, the “cAMP - antagonisme fold (paired)” value in assay [6] turned out to be 0.3 fold. Also, the “fold (paired)” value in assay [7] was 11 fold.

B5: AT159 [hGIP(3-30)NH2[K16R; H18K; K30R]-C16diacid/18] (peptide)
peptide: EGTFISDYSIAMDRIK(C16 diacid)QQDFVNWLLAQR-NH2
modifications: N-terminus assumed
SMILES: CC[C@H](C)[C@H](NC(=O)[C@H](CO)NC(=O)[C@H](Cc1ccc(O)cc1)NC(=O)[C@H](CC(=O)O)NC(=O)[C@H](CO)NC(=O)[C@@H](NC(=O)[C@H](Cc1ccccc1)NC(=O)[C@@H](NC(=O)CNC(=O)[C@@H](N)CCC(=O)O)[C@@H](C)O)[C@@H](C)CC)C(=O)N[C@@H](C)C(=O)N[C@@H](CCSC)C(=O)N[C@@H](CC(=O)O)C(=O)N[C@@H](CCCNC(=N)N)C(=O)N[C@H](C(=O)N[C@@H](CCCCNC(=O)CCCCCCCCCCCCCCC(=O)O)C(=O)N[C@@H](CCC(N)=O)C(=O)N[C@@H](CCC(N)=O)C(=O)N[C@@H](CC(=O)O)C(=O)N[C@@H](Cc1ccccc1)C(=O)N[C@H](C(=O)N[C@@H](CC(N)=O)C(=O)N[C@@H](Cc1c[nH]c2ccccc12)C(=O)N[C@@H](CC(C)C)C(=O)N[C@@H](CC(C)C)C(=O)N[C@@H](C)C(=O)N[C@@H](CCC(N)=O)C(=O)N[C@@H](CCCNC(=N)N)C(N)=O)C(C)C)[C@@H](C)CC
Turning to B5, the IC50 in assay [2] was determined as 20 nM; in assay [4], 25 nM; in assay [5], 25 nM. In assay [3], the “Fold change (IC50 2% HSA / IC50 0.1% casein)” value was found to be 0.8 fold. The “cAMP - antagonisme IC50” value in assay [6] amounted to 5.6 nM. The “cAMP - antagonisme fold (paired)” value in assay [6] came to 0.1 fold. Also, the “fold (paired)” value in assay [7] amounted to 3 fold.

B6: AT158 [hGIP(3-30)NH2[H18K]-C16diacid/18] (peptide)
peptide: EGTFISDYSIAMDKIK(C16 diacid)QQDFVNWLLAQK-NH2
modifications: N-terminus assumed
SMILES: CC[C@H](C)[C@H](NC(=O)[C@H](CO)NC(=O)[C@H](Cc1ccc(O)cc1)NC(=O)[C@H](CC(=O)O)NC(=O)[C@H](CO)NC(=O)[C@@H](NC(=O)[C@H](Cc1ccccc1)NC(=O)[C@@H](NC(=O)CNC(=O)[C@@H](N)CCC(=O)O)[C@@H](C)O)[C@@H](C)CC)C(=O)N[C@@H](C)C(=O)N[C@@H](CCSC)C(=O)N[C@@H](CC(=O)O)C(=O)N[C@@H](CCCCN)C(=O)N[C@H](C(=O)N[C@@H](CCCCNC(=O)CCCCCCCCCCCCCCC(=O)O)C(=O)N[C@@H](CCC(N)=O)C(=O)N[C@@H](CCC(N)=O)C(=O)N[C@@H](CC(=O)O)C(=O)N[C@@H](Cc1ccccc1)C(=O)N[C@H](C(=O)N[C@@H](CC(N)=O)C(=O)N[C@@H](Cc1c[nH]c2ccccc12)C(=O)N[C@@H](CC(C)C)C(=O)N[C@@H](CC(C)C)C(=O)N[C@@H](C)C(=O)N[C@@H](CCC(N)=O)C(=O)N[C@@H](CCCCN)C(N)=O)C(C)C)[C@@H](C)CC
For the molecule B6, the IC50 in assay [2] amounted to 16 nM; in assay [4] it was 7.9 nM; in assay [5] it was 7.9 nM. Further, the “Fold change (IC50 2% HSA / IC50 0.1% casein)” value in assay [3] worked out at 2 fold. For the same molecule, in assay [6], the “cAMP - antagonisme IC50” value turned out to be 4.5 nM. Further, in assay [6], the “cAMP - antagonisme fold (paired)” value amounted to 0.1 fold. Also, the “fold (paired)” value in assay [7] amounted to 1 fold.
